This is an account of results in the RNAGym collection of RNA variant scans (doi:10.1073/pnas.2313332121).

Variants at the floor of the assay were thinned out.

To fix the notation:
B1: TPR 5TU (parent)
chain: GGAUCUUCUCGAUCUAACAAAAAAGACAAAUCUGCCACAAAGCUUGAGAGCAUCUUCGGAUGCAGAGGCGGCAGCCUUCGGUGGCGCGAUAGCGCCAACGUUCUCAACUAUGACACGCAAAACGCGUGCUCCGUUGAAUGGAGUUUAUCAUG

The variants in this series derive from B1. Description: polymerase ribozyme fitness, log enrichment relative to wild type (log ratio); higher = more active; in vitro selection for triplet polymerase activity. In a few lines:
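PCR was used to build mutant libraries for each subunit of a heterodimeric triplet polymerase ribozyme, which were then transcribed. A single in vitro selection round, in triplicate, used a frozen incubation at −7 °C and recovered extended constructs by gel excision, streptavidin beads and RT-PCR. Fitness is the logarithm of genotype enrichment relative to wild-type enrichment, averaged over replicates with inverse-variance weights. The logarithm is base 2, and after Illumina sequencing only genotypes with ≥10 input reads and ≥1 read per output were kept.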
U55G G58A C93A U109G: the “polymerase ribozyme fitness (log ratio)” value is -3.3.
In the case of A52C C96G it was -1.36; in that of A23G C54A U55G G58A G59C, -4.08; in that of C75U C85A, -1.84.
In the case of U61A G88U it was at most -4.2; in that of C14U U135C, -3.88.
In the case of A17U A24U C36A G59A U77G G83A A98U C105U C116G it was at most -4.2; in that of A16U C27G A30U C35G G83A C103U, at most -4.2; in that of A3C U4G A21C C38G A41C G68A G81A C85U C95U C116G, at most -4.2.
Turning to C85U U148A, the “polymerase ribozyme fitness (log ratio)” value is -3.08.
Regarding C18G A21G C93U C149A, the “polymerase ribozyme fitness (log ratio)” value was at most -4.2.
The result for A22C A37U U61G C85G A91U U146A reads at most -4.2; that for A66C A73C, at most -4.2; that for G58A A66G C93U C99U, at most -4.2.
In the case of G86U C87A C95A U104A it was at most -4.2; in that of G58C U61C G70C C76G C96U A138G G140U C149G, at most -4.2; in that of G94C U145G, -0.944.
For the variant A12C C14U U55A A98G C103G G133A, the “polymerase ribozyme fitness (log ratio)” value was at most -4.2.
U15G C51A C93A G124U U145A: the “polymerase ribozyme fitness (log ratio)” value was -3.28.
In the case of A16G A26U U31C U82A A106U C131A U139G G141C it was at most -4.2.
On to A39C A41C G86U U139G, for which the “polymerase ribozyme fitness (log ratio)” value was at most -4.2.
The result for G48C G59C A73G C76U C96U U101C reads -3.78.
In the case of C54G G68C G80A G94U A98G it was at most -4.2; in that of U77G G84U, at most -4.2.
In the case of U56G G59C C85G U135A it was -2.51; in that of G71U G86U C125A A138G, -3.99; in that of C116U A119G, -0.704.
For the variant G25U A30G A47G C51U G80C A110C, the “polymerase ribozyme fitness (log ratio)” value is at most -4.2.
The result for C51A C75U reads -2.27; that for U55G C87U, -1.42.
G59U U90G A91G C95A G126C U146G: the “polymerase ribozyme fitness (log ratio)” value was at most -4.2.
The result for C87U C129A reads -2.76.
The result for U44A G88A A120G reads at most -4.2; that for A40U C69U G84C G143C, at most -4.2; that for C51A C96A, -1.26.
In the case of A21U C96G it was -0.697; in that of A26U A40U A91U A121U, at most -4.2.
On to A3U C14U A40U A52U G84A G112C, for which the “polymerase ribozyme fitness (log ratio)” value is at most -4.2.
The result for U13A U135A reads -0.229; that for C85U G126U U139A U144C, -3.59; that for A24U A40C A49C C72G G83U C87G U139G U144C U151G, at most -4.2.
A17U A21U C43U G71A C75U C93A C114U A120U U151G: the “polymerase ribozyme fitness (log ratio)” value is at most -4.2.
The result for A39U A107G G140C reads at most -4.2; that for C10A C27G U77C G83A, at most -4.2; that for A21C G59A, -0.0146.
The result for C35U G46A A119G A121U reads -1.45.
In the case of U9G U139C, the “polymerase ribozyme fitness (log ratio)” value was at most -4.2.
The result for C87A U144C reads at most -4.2; that for U6G C114A, -3.22.
C96G G112C: the “polymerase ribozyme fitness (log ratio)” value was -3.95.
G84A G143U: the “polymerase ribozyme fitness (log ratio)” value was -2.51.
A41C U53G: the “polymerase ribozyme fitness (log ratio)” value was -3.43.
In the case of C10G A19G G34A A52C C54G it was at most -4.2; in that of A19C G62C C72A C87A C131U U135A, at most -4.2; in that of A29U A52U U53A G80A C87A G128U U146C, at most -4.2.
Take C32A U44A A60C C79G G92U: the “polymerase ribozyme fitness (log ratio)” value is at most -4.2.
In the case of G86U G92U it was -1.95.
The result for A47C G62A G70A U82A C85U G86A G152C reads at most -4.2; that for G50U U55A A66G C95U C103A A138U, at most -4.2; that for A40C C75G C85A G141U, at most -4.2.
Turning to G11U A17G C57U C63U G81A U82G, the “polymerase ribozyme fitness (log ratio)” value was -1.64.
In the case of G50A U77G G81A A91U A97G A122U, the “polymerase ribozyme fitness (log ratio)” value is at most -4.2.
In the case of A19C A29U A39U A60U C76U C95U U144A it was at most -4.2; in that of U55G C87A G141C, -3.74; in that of G58A C103A, -1.19.
In the case of G59C G86A A89G it was -4; in that of G70U G84U C87U G100A, at most -4.2; in that of A26C C75U G92C, at most -4.2.
The result for A17G C27A C35G C75A G86C A142G reads at most -4.2; that for C5A U13A A24G U82C G100C, at most -4.2.
For A22C A39C U55A U102G C129U, the “polymerase ribozyme fitness (log ratio)” value was at most -4.2.
The result for G34U U56A reads -1.7.
In the case of A17U C18G A41G A89C G126A C132U it was -3.84; in that of A22G C32U A37G A41C G71A C95U C96G U139C, at most -4.2.
In the case of G42C A49G C54G G83C C85U C96A it was at most -4.2; in that of U55G U145A, -0.604.
Regarding A19G A30G G42C G50A C85U U109A A120G, the “polymerase ribozyme fitness (log ratio)” value is at most -4.2.
The result for C87U G92C reads -0.38.
In the case of A3C A41G G84A G126C it was -0.499.
Turning to C57A G94A, the “polymerase ribozyme fitness (log ratio)” value was -0.487.
The result for C85U A89U G126U U145G reads -3.94; that for A64C A73U G84A U102G C116A, at most -4.2; that for A19U G59C A89U G92C A121G, -2.25.
